Reference: patent US20100216191A1, “Method for Manufacturing a Modified Peptide” (PROCOMCURE BIOTECH GMBH, priority 2007, published 2010)

Experiments:
[1] = target: ClfB (clumping factor B of S. aureus, NCBI Protein GI 15925620) (Staphylococcus aureus), Q99R07; test: cell-based or functional assay
[2] = target: His-tagged recombinant ClfB protein (Staphylococcus aureus); test: pull-down competition on His-tagged ClfB beads, anti-GST Western blot, densitometry; competes with GST-tagged Frag2-CDS

Chain of ClfB (clumping factor B of S. aureus, NCBI Protein GI 15925620) (Staphylococcus aureus), Q99R07 (Q99R07 45-841 limits assumed): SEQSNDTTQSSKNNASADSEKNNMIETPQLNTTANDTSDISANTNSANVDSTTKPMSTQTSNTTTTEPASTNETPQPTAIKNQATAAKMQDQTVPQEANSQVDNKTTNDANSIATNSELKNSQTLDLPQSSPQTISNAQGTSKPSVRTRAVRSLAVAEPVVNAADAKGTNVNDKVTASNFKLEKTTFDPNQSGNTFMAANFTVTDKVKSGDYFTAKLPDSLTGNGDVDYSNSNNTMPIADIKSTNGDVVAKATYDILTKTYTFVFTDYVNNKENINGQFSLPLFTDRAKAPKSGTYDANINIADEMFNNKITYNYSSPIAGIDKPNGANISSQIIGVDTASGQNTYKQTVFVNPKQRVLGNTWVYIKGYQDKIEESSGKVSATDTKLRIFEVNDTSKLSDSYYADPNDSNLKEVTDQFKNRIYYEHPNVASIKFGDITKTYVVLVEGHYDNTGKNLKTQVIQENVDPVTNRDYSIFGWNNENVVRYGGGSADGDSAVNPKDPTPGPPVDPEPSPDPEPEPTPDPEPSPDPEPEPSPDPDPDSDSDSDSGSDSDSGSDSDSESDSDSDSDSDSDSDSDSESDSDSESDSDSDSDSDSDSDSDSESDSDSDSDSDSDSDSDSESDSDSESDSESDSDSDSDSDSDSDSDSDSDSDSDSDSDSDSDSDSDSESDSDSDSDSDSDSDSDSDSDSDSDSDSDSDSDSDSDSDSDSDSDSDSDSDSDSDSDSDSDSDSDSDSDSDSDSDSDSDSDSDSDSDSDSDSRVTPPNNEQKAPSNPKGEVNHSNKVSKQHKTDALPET

Binder	beta-galactosidase expression (X-Gal beta galactosidase overlay assay, Y2H) (% more than the original binder) [1]	percent inhibition of the binding of GST-tagged keratin fragment to ClfB-protein at 1 µM peptide [2] [%]
YSLGSSFGSGAGSSSSSRTSPSRAVVVK (modifications not checked) [more stronger binder (peptide SEQ ID NO 73)]	> 100	–
YSLGSSFGSGAGSSSLGRTSSSRAVVVK (modifications not checked) [stronger binder (peptide SEQ ID NO 97)]	> 50	–
SYSLGSSFGSGAGSSSFSRTS (modifications not checked) [IPEP-21SA (synthetic peptide of 21 amino acids)]	–	40
